Test results reported in patent US20120316071A1 (published 2012).

Columns and labels:
[1] = molecular target: T1, Recombinant Human DLL4 (delta-like protein 4) (human, UniProt Q9NR61 27-524); test: ELISA, DLL4 coated on plate, Fab at 5 nM, absorbance at 450 nm
T1 construct: Bought recombinant protein (R&D Systems Cat#1506-D4/CF) coated on the ELISA plate; also called rHuman DLL4; Delta-like 4

[2] = molecular target: T1, Recombinant Human DLL4 (delta-like …); test: ELISA, DLL4 coated on plate, Fab at 10 nM, absorbance at 450 nm
[3] = molecular target: T1, Recombinant Human DLL4 (delta-like …); test: ELISA, DLL4 coated on plate, Fab at 20 nM, absorbance at 450 nm
[4] = molecular target: T1, Recombinant Human DLL4 (delta-like …); test: ELISA, DLL4 coated on plate, Fab at 1.3 nM, absorbance at 450 nm
[5] = molecular target: T1, Recombinant Human DLL4 (delta-like …); test: ELISA, DLL4 coated on plate, Fab at 2.5 nM, absorbance at 450 nm
[6] = molecular target: T1, Recombinant Human DLL4 (delta-like …); test: ELISA, DLL4 coated on plate, Fab at 0.16 nM, absorbance at 450 nm
[7] = molecular target: T1, Recombinant Human DLL4 (delta-like …); test: ELISA, DLL4 coated on plate, Fab at 0.31 nM, absorbance at 450 nm
[8] = molecular target: T1, Recombinant Human DLL4 (delta-like …); test: ELISA, DLL4 coated on plate, Fab at 0.63 nM, absorbance at 450 nm
[9] = molecular target: T2, Recombinant Human DLL4 (human, UniProt Q9NR61 27-524); test: ECL (MSD) multispot binding assay, DLL4 spotted on plate, Fab in solution
T2 construct: also called delta-like protein 4; rHuman DLL4

| Binder | ELISA signal [1] | ELISA signal [2] | ELISA signal [3] | ELISA signal [4] | ELISA signal [5] | ELISA signal [6] | ELISA signal [7] | ELISA signal [8] | ECL signal [9] |
| --- | --- | --- | --- | --- | --- | --- | --- | --- | --- |
| Fab VH1-46_IGHD6-6*01_IGHJ1*01 S102A/S103P/S104F/H111F/I51N/N52L/S54T/G56H (APFF NLTH) & L6_IGKJ1*01 (Fab, V domains shown, Tested as a Fab made in E. coli: VH in Plasmid A (CH1, His6 and Flag tags), kappa VL in Plasmid C (kappa CL)) VH: QVQLVQSGAEVKKPGASVKVSCKASGYTFTSYYMHWVRQAPGQGLEWMGINLPTGHSTSYAQKFQGRVTMTRDTSTSTVYMELSSLRSEDTAVYYCAREEYAPFSAEYFQFWGQGTLVTVSS VL: not shown | 1.75 | 1.36 | 1.63 | 0.143 | 1.17 | 1.36 | 1.63 | 0.419 |  |
| Fab VH1-46_IGHD6-6*01_IGHJ1*01 S102A/S103P/S104F/H111F (APFF) & L6_IGKJ1*01 W94R (Fab, V domains shown, Fab from E. coli; VH in Plasmid A (CH1, His6 and Flag tags), VL in Plasmid C (kappa CL); also called APFF & W94R) VH: QVQLVQSGAEVKKPGASVKVSCKASGYTFTSYYMHWVRQAPGQGLEWMGIINPSGGSTSYAQKFQGRVTMTRDTSTSTVYMELSSLRSEDTAVYYCAREEYAPFSAEYFQFWGQGTLVTVSS VL: EIVLTQSPATLSLSPGERATLSCRASQSVSSYLAWYQQKPGQAPRLLIYDASNRATGIPARFSGSGSGTDFTLTISSLEPEDFAVYYCQQRSNRPPWTFGQGTKVEIKR |  |  |  |  |  |  |  |  | 75800 |
| Fab VH1-46_IGHD6-6*01_IGHJ1*01 S102A/S103P/S104F/H111F/I51V/N52L/S54T/G56H (APFF VLTH) & L6_IGKJ1*01 (Fab, V domains shown, Tested as a Fab made in E. coli: VH in Plasmid A (CH1, His6 and Flag tags), kappa VL in Plasmid C (kappa CL); also called APPF VLTH) VH: QVQLVQSGAEVKKPGASVKVSCKASGYTFTSYYMHWVRQAPGQGLEWMGIVLPTGHSTSYAQKFQGRVTMTRDTSTSTVYMELSSLRSEDTAVYYCAREEYAPFSAEYFQFWGQGTLVTVSS VL: not shown | 2.2 | 1.85 | 2.05 | 0.252 | 1.66 | 1.85 | 2.05 | 0.785 |  |
| Fab VH1-46_IGHD6-6*01_IGHJ1*01 S102A/S103P/S104F/H111F/I51E/N52L/S54T/G56H (APFF ELTH) & L6_IGKJ1*01 (Fab, V domains shown, Tested as a Fab made in E. coli: VH in Plasmid A (CH1, His6 and Flag tags), kappa VL in Plasmid C (kappa CL)) VH: QVQLVQSGAEVKKPGASVKVSCKASGYTFTSYYMHWVRQAPGQGLEWMGIELPTGHSTSYAQKFQGRVTMTRDTSTSTVYMELSSLRSEDTAVYYCAREEYAPFSAEYFQFWGQGTLVTVSS VL: not shown | 2.33 | 2.17 | 2.29 | 0.402 | 1.98 | 2.17 | 2.29 | 1.01 |  |
| Fab VH1-46_IGHD6-6*01_IGHJ1*01 S102A/S103P/S104F/H111F (APFF) & L6_IGKJ1*01 W94L (Fab, V domains shown, Fab from E. coli; VH in Plasmid A (CH1, His6 and Flag tags), VL in Plasmid C (kappa CL); also called APFF & W94L) VH: QVQLVQSGAEVKKPGASVKVSCKASGYTFTSYYMHWVRQAPGQGLEWMGIINPSGGSTSYAQKFQGRVTMTRDTSTSTVYMELSSLRSEDTAVYYCAREEYAPFSAEYFQFWGQGTLVTVSS VL: EIVLTQSPATLSLSPGERATLSCRASQSVSSYLAWYQQKPGQAPRLLIYDASNRATGIPARFSGSGSGTDFTLTISSLEPEDFAVYYCQQRSNLPPWTFGQGTKVEIKR |  |  |  |  |  |  |  |  | 11600 |
| Fab VH1-46_IGHD6-6*01_IGHJ1*01 S102A/S103P/S104F/H111F (APFF) & L6_IGKJ1*01 W94M (Fab, V domains shown, Fab from E. coli; VH in Plasmid A (CH1, His6 and Flag tags), VL in Plasmid C (kappa CL); also called APFF & W94M) VH: QVQLVQSGAEVKKPGASVKVSCKASGYTFTSYYMHWVRQAPGQGLEWMGIINPSGGSTSYAQKFQGRVTMTRDTSTSTVYMELSSLRSEDTAVYYCAREEYAPFSAEYFQFWGQGTLVTVSS VL: EIVLTQSPATLSLSPGERATLSCRASQSVSSYLAWYQQKPGQAPRLLIYDASNRATGIPARFSGSGSGTDFTLTISSLEPEDFAVYYCQQRSNMPPWTFGQGTKVEIKR |  |  |  |  |  |  |  |  | 33800 |
